The numbers were not newly measured in publication PMC5662687, which cites them from elsewhere.

pKd: −log10 of the molar value.

For this series, the target named is ICAM-1 (Homo sapiens) (UniProt P05362).
Sequence of ICAM-1 (Homo sapiens) (P05362 28-480): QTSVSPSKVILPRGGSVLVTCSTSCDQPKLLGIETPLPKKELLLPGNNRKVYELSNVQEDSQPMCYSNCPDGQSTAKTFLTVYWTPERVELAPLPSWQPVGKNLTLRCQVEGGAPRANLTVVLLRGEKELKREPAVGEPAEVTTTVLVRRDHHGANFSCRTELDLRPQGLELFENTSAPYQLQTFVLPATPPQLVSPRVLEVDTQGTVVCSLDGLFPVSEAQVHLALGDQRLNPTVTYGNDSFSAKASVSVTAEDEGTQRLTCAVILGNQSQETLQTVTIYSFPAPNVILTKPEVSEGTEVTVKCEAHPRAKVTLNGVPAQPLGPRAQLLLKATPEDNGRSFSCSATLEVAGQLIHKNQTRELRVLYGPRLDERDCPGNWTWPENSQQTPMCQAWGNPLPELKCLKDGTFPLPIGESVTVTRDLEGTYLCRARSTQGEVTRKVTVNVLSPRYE

Sequence of LFA-1 (P20701 26-1090): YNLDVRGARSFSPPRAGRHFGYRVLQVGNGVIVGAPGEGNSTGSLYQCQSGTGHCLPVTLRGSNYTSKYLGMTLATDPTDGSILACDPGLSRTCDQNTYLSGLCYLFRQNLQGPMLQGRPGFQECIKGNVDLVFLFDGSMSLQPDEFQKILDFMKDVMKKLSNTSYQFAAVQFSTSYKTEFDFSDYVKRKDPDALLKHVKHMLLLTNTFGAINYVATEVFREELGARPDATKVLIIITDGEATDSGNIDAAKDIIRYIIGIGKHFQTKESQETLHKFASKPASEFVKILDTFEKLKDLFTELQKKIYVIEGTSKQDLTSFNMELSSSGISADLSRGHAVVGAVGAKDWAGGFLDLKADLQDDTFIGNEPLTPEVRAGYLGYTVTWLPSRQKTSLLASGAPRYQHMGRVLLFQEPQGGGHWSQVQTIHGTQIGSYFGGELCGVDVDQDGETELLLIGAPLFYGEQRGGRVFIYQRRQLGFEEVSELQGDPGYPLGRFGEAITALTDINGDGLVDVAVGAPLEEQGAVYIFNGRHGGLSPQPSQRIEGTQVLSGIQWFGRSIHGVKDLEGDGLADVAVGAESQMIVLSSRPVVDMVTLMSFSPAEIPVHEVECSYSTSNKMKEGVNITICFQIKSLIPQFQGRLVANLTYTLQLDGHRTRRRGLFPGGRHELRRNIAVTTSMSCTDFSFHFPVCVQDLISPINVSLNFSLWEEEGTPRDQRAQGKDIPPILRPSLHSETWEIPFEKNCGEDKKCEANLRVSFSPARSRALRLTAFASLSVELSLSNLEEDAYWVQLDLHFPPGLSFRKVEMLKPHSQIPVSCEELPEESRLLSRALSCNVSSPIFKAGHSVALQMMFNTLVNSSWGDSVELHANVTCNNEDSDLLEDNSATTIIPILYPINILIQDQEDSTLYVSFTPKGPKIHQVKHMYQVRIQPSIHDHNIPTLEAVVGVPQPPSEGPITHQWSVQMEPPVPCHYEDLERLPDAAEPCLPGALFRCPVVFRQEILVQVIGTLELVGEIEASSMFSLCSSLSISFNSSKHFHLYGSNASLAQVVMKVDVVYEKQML
Sequence of LFA-1 (P05107 23-700, further chain): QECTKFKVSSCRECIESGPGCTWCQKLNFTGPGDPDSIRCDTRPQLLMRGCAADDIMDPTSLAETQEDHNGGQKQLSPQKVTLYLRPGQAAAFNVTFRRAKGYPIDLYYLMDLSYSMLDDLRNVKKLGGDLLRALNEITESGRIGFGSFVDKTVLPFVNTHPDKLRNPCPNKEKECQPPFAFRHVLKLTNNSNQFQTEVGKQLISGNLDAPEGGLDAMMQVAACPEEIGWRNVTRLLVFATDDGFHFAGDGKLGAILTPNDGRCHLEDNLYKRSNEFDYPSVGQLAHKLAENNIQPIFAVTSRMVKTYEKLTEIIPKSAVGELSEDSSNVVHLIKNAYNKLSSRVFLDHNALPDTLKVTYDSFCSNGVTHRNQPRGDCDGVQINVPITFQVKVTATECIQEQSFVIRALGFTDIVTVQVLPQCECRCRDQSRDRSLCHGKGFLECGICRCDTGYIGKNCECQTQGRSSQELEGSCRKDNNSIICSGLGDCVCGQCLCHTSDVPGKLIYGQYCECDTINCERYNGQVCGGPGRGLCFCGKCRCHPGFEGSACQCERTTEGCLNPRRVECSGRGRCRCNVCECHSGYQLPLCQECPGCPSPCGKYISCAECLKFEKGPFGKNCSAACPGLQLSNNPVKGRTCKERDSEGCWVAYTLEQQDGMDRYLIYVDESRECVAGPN

By pKd is commonly meant the negative decadic logarithm of the Kd, by convention in mol/L. As to LFA-1 (from UniProt P20701), the pKd is 3.00.
